The text below walks through data of the supplement of paper PMC10219994.

To fix the notation:
B1: library; a variant is named by its letters at N, in order (parent)
chain: GAGACCGCAACTGAAAAGTTGTGGNNNNNATAGTGAGTCGCTGCCTGCAAAGACACAACT

± gives the standard deviation of the averaged measurements.

In the data set the parent is B1. Kind of data set: ligation selection enrichment (abundance after / before one-round selection) (fold); higher = more template-directed ligation activity. The settings on record: with T7Psub CACGGAUGCUAAUACGACUCACUAUA; MgCl2 25 mM; 42 °C; 4 h; pH 8.5. Put shortly: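 RNA ligase library with five randomized core positions (0.75 μM, T7-transcribed) was reacted with RNA substrate (6 μM) in 50 mM EPPS pH 8.5, 25 mM MgCl2 at 42 °C for 4 h, in two independent experiments. Ligated products were PAGE-purified, reverse transcribed, barcoded by PCR and MiSeq-sequenced. Reads with quality score ≥30 at all randomized positions were counted. Enrichment was abundance after ligation divided by abundance before ligation.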
As to GAGACCGCAACTGAAAAGTTGTGGAGGATATAGTGAGTCGCTGCCTGCAAAGACACAACT [AGGAT], the ligation selection enrichment is 95.7 ± 0.79.

In the case of GAGACCGCAACTGAAAAGTTGTGGAGGACATAGTGAGTCGCTGCCTGCAAAGACACAACT [AGGAC], the ligation selection enrichment turned out to be 14.4 ± 2.2.

Turning to GAGACCGCAACTGAAAAGTTGTGGAGGAGATAGTGAGTCGCTGCCTGCAAAGACACAACT [AGGAG], the ligation selection enrichment was 0.806 ± 0.1.

As to GAGACCGCAACTGAAAAGTTGTGGAGGAAATAGTGAGTCGCTGCCTGCAAAGACACAACT [AGGAA], the ligation selection enrichment is 2.74 ± 0.034.

As for GAGACCGCAACTGAAAAGTTGTGGGGGTTATAGTGAGTCGCTGCCTGCAAAGACACAACT [GGGTT], the ligation selection enrichment amounted to 0.318 ± 0.011.

Turning to GAGACCGCAACTGAAAAGTTGTGGGGGTCATAGTGAGTCGCTGCCTGCAAAGACACAACT [GGGTC], the ligation selection enrichment worked out at 0.201 ± 0.006.

As to GAGACCGCAACTGAAAAGTTGTGGGGGTAATAGTGAGTCGCTGCCTGCAAAGACACAACT [GGGTA], the ligation selection enrichment was 0.445 ± 0.024.

Take GAGACCGCAACTGAAAAGTTGTGGGGGTGATAGTGAGTCGCTGCCTGCAAAGACACAACT [GGGTG]: the ligation selection enrichment is 0.317 ± 0.033.

For GAGACCGCAACTGAAAAGTTGTGGGGGAGATAGTGAGTCGCTGCCTGCAAAGACACAACT [GGGAG], the ligation selection enrichment stood at 1.05 ± 0.051.

Regarding GAGACCGCAACTGAAAAGTTGTGGGGGAAATAGTGAGTCGCTGCCTGCAAAGACACAACT [GGGAA], the ligation selection enrichment is 6.049 ± 0.019.

As for GAGACCGCAACTGAAAAGTTGTGGGGGACATAGTGAGTCGCTGCCTGCAAAGACACAACT [GGGAC], the ligation selection enrichment turned out to be 30.7 ± 5.3.

On to GAGACCGCAACTGAAAAGTTGTGGGGGATATAGTGAGTCGCTGCCTGCAAAGACACAACT [GGGAT], for which the ligation selection enrichment is 167 ± 32.

Regarding GAGACCGCAACTGAAAAGTTGTGGTGTATATAGTGAGTCGCTGCCTGCAAAGACACAACT [TGTAT], the ligation selection enrichment stood at 1.97 ± 0.21.

Take GAGACCGCAACTGAAAAGTTGTGGTGTACATAGTGAGTCGCTGCCTGCAAAGACACAACT [TGTAC]: the ligation selection enrichment came out at 0.277 ± 0.037.

With GAGACCGCAACTGAAAAGTTGTGGTGTAAATAGTGAGTCGCTGCCTGCAAAGACACAACT [TGTAA], the ligation selection enrichment amounted to 0.267 ± 0.021.

Turning to GAGACCGCAACTGAAAAGTTGTGGTGTAGATAGTGAGTCGCTGCCTGCAAAGACACAACT [TGTAG], the ligation selection enrichment was 0.307 ± 0.076.

Take GAGACCGCAACTGAAAAGTTGTGGAGTACATAGTGAGTCGCTGCCTGCAAAGACACAACT [AGTAC]: the ligation selection enrichment was 0.492 ± 0.1.

Take GAGACCGCAACTGAAAAGTTGTGGAGTAAATAGTGAGTCGCTGCCTGCAAAGACACAACT [AGTAA]: the ligation selection enrichment came out at 0.427 ± 0.042.

For GAGACCGCAACTGAAAAGTTGTGGAGTATATAGTGAGTCGCTGCCTGCAAAGACACAACT [AGTAT], the ligation selection enrichment amounted to 6.55 ± 1.2.

For the variant GAGACCGCAACTGAAAAGTTGTGGAGTAGATAGTGAGTCGCTGCCTGCAAAGACACAACT [AGTAG], the ligation selection enrichment was 1.697 ± 0.012.

Regarding GAGACCGCAACTGAAAAGTTGTGGAGTCAATAGTGAGTCGCTGCCTGCAAAGACACAACT [AGTCA], the ligation selection enrichment worked out at 0.891 ± 0.1.

In the case of GAGACCGCAACTGAAAAGTTGTGGCGTCAATAGTGAGTCGCTGCCTGCAAAGACACAACT [CGTCA], the ligation selection enrichment stood at 0.569 ± 0.038.

In the case of GAGACCGCAACTGAAAAGTTGTGGAGCTTATAGTGAGTCGCTGCCTGCAAAGACACAACT [AGCTT], the ligation selection enrichment worked out at 0.149 ± 0.13.

Take GAGACCGCAACTGAAAAGTTGTGGAGGTCATAGTGAGTCGCTGCCTGCAAAGACACAACT [AGGTC]: the ligation selection enrichment is 0.196 ± 0.011.

Turning to GAGACCGCAACTGAAAAGTTGTGGAGGTGATAGTGAGTCGCTGCCTGCAAAGACACAACT [AGGTG], the ligation selection enrichment is 0.279 ± 0.036.

Turning to GAGACCGCAACTGAAAAGTTGTGGAGGTTATAGTGAGTCGCTGCCTGCAAAGACACAACT [AGGTT], the ligation selection enrichment stood at 0.245 ± 0.075.

Consider GAGACCGCAACTGAAAAGTTGTGGAGGTAATAGTGAGTCGCTGCCTGCAAAGACACAACT [AGGTA], for which the ligation selection enrichment came to 0.41 ± 0.019.

In the case of GAGACCGCAACTGAAAAGTTGTGGCGGATATAGTGAGTCGCTGCCTGCAAAGACACAACT [CGGAT], the ligation selection enrichment was determined as 57.6 ± 1.5.

Regarding GAGACCGCAACTGAAAAGTTGTGGCGGAAATAGTGAGTCGCTGCCTGCAAAGACACAACT [CGGAA], the ligation selection enrichment came to 1.02 ± 0.075.

Consider GAGACCGCAACTGAAAAGTTGTGGCGGAGATAGTGAGTCGCTGCCTGCAAAGACACAACT [CGGAG], for which the ligation selection enrichment was 0.459 ± 0.021.

On to GAGACCGCAACTGAAAAGTTGTGGCGGACATAGTGAGTCGCTGCCTGCAAAGACACAACT [CGGAC], for which the ligation selection enrichment worked out at 3.77 ± 0.4.

Take GAGACCGCAACTGAAAAGTTGTGGCGTAGATAGTGAGTCGCTGCCTGCAAAGACACAACT [CGTAG]: the ligation selection enrichment is 0.612 ± 0.083.

As for GAGACCGCAACTGAAAAGTTGTGGCGTAAATAGTGAGTCGCTGCCTGCAAAGACACAACT [CGTAA], the ligation selection enrichment was found to be 0.311 ± 0.023.

With GAGACCGCAACTGAAAAGTTGTGGCGTACATAGTGAGTCGCTGCCTGCAAAGACACAACT [CGTAC], the ligation selection enrichment turned out to be 0.447 ± 0.0085.

As to GAGACCGCAACTGAAAAGTTGTGGCGTATATAGTGAGTCGCTGCCTGCAAAGACACAACT [CGTAT], the ligation selection enrichment stood at 4.81 ± 0.52.

Turning to GAGACCGCAACTGAAAAGTTGTGGTGGCGATAGTGAGTCGCTGCCTGCAAAGACACAACT [TGGCG], the ligation selection enrichment was 0.345 ± 0.019.

Turning to GAGACCGCAACTGAAAAGTTGTGGTGGCAATAGTGAGTCGCTGCCTGCAAAGACACAACT [TGGCA], the ligation selection enrichment was determined as 0.252 ± 0.025.

With GAGACCGCAACTGAAAAGTTGTGGTGGCTATAGTGAGTCGCTGCCTGCAAAGACACAACT [TGGCT], the ligation selection enrichment came to 0.75 ± 0.2.

For the variant GAGACCGCAACTGAAAAGTTGTGGTGGCCATAGTGAGTCGCTGCCTGCAAAGACACAACT [TGGCC], the ligation selection enrichment is 0.286 ± 0.041.

Consider GAGACCGCAACTGAAAAGTTGTGGGGGCTATAGTGAGTCGCTGCCTGCAAAGACACAACT [GGGCT], for which the ligation selection enrichment was found to be 0.765 ± 0.27.

With GAGACCGCAACTGAAAAGTTGTGGGGGCAATAGTGAGTCGCTGCCTGCAAAGACACAACT [GGGCA], the ligation selection enrichment came out at 0.298 ± 0.033.

In the case of GAGACCGCAACTGAAAAGTTGTGGGGGCCATAGTGAGTCGCTGCCTGCAAAGACACAACT [GGGCC], the ligation selection enrichment turned out to be 0.243 ± 0.0042.

With GAGACCGCAACTGAAAAGTTGTGGGGGCGATAGTGAGTCGCTGCCTGCAAAGACACAACT [GGGCG], the ligation selection enrichment is 0.626 ± 0.07.

As for GAGACCGCAACTGAAAAGTTGTGGGGTAAATAGTGAGTCGCTGCCTGCAAAGACACAACT [GGTAA], the ligation selection enrichment was 0.348 ± 0.1.
